Columns and labels:
[1] = tested on: T1, RspWYL1 (WP_046441785.1, Ruminococcus sp. N15.MGS-57 WYL1 accessory protein)
T1 sequence: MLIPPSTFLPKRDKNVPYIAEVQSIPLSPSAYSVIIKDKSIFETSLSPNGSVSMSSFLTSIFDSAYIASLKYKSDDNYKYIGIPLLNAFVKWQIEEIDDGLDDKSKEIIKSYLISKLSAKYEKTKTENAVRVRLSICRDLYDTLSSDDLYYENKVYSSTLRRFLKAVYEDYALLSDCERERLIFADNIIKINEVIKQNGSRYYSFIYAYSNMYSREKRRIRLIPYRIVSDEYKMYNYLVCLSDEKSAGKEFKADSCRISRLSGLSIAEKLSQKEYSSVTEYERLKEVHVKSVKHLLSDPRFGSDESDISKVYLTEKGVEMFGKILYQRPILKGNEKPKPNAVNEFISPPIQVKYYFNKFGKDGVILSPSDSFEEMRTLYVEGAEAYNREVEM

[2] = biological target: T2, RspWYL1 (WP_046441785.1, Ruminococcus sp. N15.MGS-57 WYL1 accessory protein)
T2 chain: T1 sequence

Q: How did the “in vitro ssRNA cleavage activity (denaturing gel)” value [1] turn out when Bergeyella zoohelcum Cas13b (BzCas13b) was run?
A: The value was “RspWYL1 enhanced the activity of BzCas13b”.

B1: RspCas13d (WP_046441786.1, Ruminococcus sp. N15.MGS-57 Type VI-D CRISPR-Cas effector) (protein)
chain: MAKKNKMKPRELREAQKKARQLKAAEINNNAAPAIAAMPAAEVIAPVAEKKKSSVKAAGMKSILVSKNKMYITSFGKGNSAVLEYEVDNNDYNQTQLSSKGSSNIELRGVNEVNITFSSKHGFESGVEINTSNPTHRSGESSPVRGDMLGLKSELEKRFFGKTFDDNIHIQLIYNILDIEKILAVYVTNIVYALNNMLSIKDSESYDDFMGYLSARNTYEVFTHPDKSNLSDKAKGNIKKSFSTFNDLLKTKRLGYFGLEEPKTKDTRVSQAYKKRVYHMLAIVGQIRQSVFHDKSSKLDEDLYSFIDIIDSEYRETLDYLVDERFDSINKGFIQGNKVNISLLIDMMKGYEADDIIRLYYDFIVLKSQKNLGFSIKKLREKMLDEYGFRFKDKQYDSVRSKMYKLMDFLLFCNYYRNDVVAGEALVRKLRFSMTDDEKEGIYADEASKLWGKFRNDFENIADHMNGDVIKELGKADMDFDEKILDSEKKNASDLLYFSKMIYMLTYFLDGKEINDLLTTLISKFDNIKEFLKIMKSSAVDVECELTAGYKLFNDSQRITNELFIVKNIASMRKPASSAKLTMFRDALTILGIDDNITDDRISEILKLKEKGKGIHGLRNFITNNVIESSRFVYLIKYANAQKIRKVAKNEKVVMFVLGGIPDTQIERYYKSCVEFPDMNSSLEVKRSELARMIKNISFDDFKNVKQQAKGRENVAKERAKAVIGLYLTVMYLLVKNLVNVNARYVIAIHCLERDFGLYKEIIPELASKNLKNDYRILSQTLCELCDKSPNLFLKKNERLRKCVEVDINNADSSMTRKYRNCIAHLTVVRELKEYIGDIRTVDSYFSIYHYVMQRCITKRENDTKQEEKIKYEDDLLKNHGYTKDFVKALNSPFGYNIPRFKNLSIEQLFDRNEYLTEK
Q: Which “targeted and collateral ssRNA cleavage activity (in vitro ssRNA cleavage assay, denaturing gel)” value [2] does the source give for B1 here?
A: Its value is “RspWYL1 increases both the targeted and collateral ssRNA cleavage activity of RspCas13d in a dose-dependent manner, with a molar excess of RspWYL1 yielding the greatest increase in Cas13d activity”.

B2: EsCas13d (WP_005358205.1, Eubacterium siraeum DSM 15702 Type VI-D CRISPR-Cas effector) (protein)
chain: MGKKIHARDLREQRKTDRTEKFADQNKKREAERAVPKKDAAVSVKSVSSVSSKKDNVTKSMAKAAGVKSVFAVGNTVYMTSFGRGNDAVLEQKIVDTSHEPLNIDDPAYQLNVVTMNGYSVTGHRGETVSAVTDNPLRRFNGRKKDEPEQSVPTDMLCLKPTLEKKFFGKEFDDNIHIQLIYNILDIEKILAVYSTNAIYALNNMSADENIENSDFFMKRTTDETFDDFEKKKESTNSREKADFDAFEKFIGNYRLAYFADAFYVNKKNPKGKAKNVLREDKELYSVLTLIGKLRHWCVHSEEGRAEFWLYKLDELKDDFKNVLDVVYNRPVEEINNRFIENNKVNIQILGSVYKNTDIAELVRSYYEFLITKKYKNMGFSIKKLRESMLEGKGYADKEYDSVRNKLYQMTDFILYTGYINEDSDRADDLVNTLRSSLKEDDKTTVYCKEADYLWKKYRESIREVADALDGDNIKKLSKSNIEIQEDKLRKCFISYADSVSEFTKLIYLLTRFLSGKEINDLVTTLINKFDNIRSFLEIMDELGLDRTFTAEYSFFEGSTKYLAELVELNSFVKSCSFDINAKRTMYRDALDILGIESDKTEEDIEKMIDNILQIDANGDKKLKKNNGLRNFIASNVIDSNRFKYLVRYGNPKKIRETAKCKPAVRFVLNEIPDAQIERYYEACCPKNTALCSANKRREKLADMIAEIKFENFSDAGNYQKANVTSRTSEAEIKRKNQAIIRLYLTVMYIMLKNLVNVNARYVIAFHCVERDTKLYAESGLEVGNIEKNKTNLTMAVMGVKLENGIIKTEFDKSFAENAANRYLRNARWYKLILDNLKKSERAVVNEFRNTVCHLNAIRNININIKEIKEVENYFALYHYLIQKHLENRFADKKVERDTGDFISKLEEHKTYCKDFVKAYCTPFGYNLVRYKNLTIDGLFDKNYPGKDDSDEQK
Q: How did the “targeted and collateral ssRNA nuclease activities (in vitro ssRNA cleavage assay, denaturing gel)” value [2] turn out when B2 was run?
A: The value was “RspWYL1 enhanced the targeted and collateral ssRNA nuclease activities of EsCas13d to a similar extent as observed for RspCas13d”.

From patent US20190002889
